Reference: publication PMC9765892, “Molecular identification and functional characterization of two glycosyltransferases genes from Fallopia multiflora” (Frontiers in Plant Science, 2022)

Columns and labels:
FmUGT1 = target: T1, FmUGT1 (Pleuropterus multiflorus, UniProt A0A9E7V1Q5); assay: HPLC glycosylation assay; Lineweaver-Burk plot; assay type: biochemical; conditions: 0.8 mM UDP-glucose; 0.05 M Tris-HCl; 5-480 μM substrate; pH and temperature of kinetics not stated; substrate assigned from methods
T1 construct: gene UGT; full length, 533 residues (ORF 1602 bp); pET-32a (BamH I) in E. coli Transetta (DE3), Ni-NTA purified
Excerpt: HPLC glycosylation assay; Lineweaver-Burk plot on FmUGT1 | using THSG and emodin as the substrate for FmUGT1 and FmUGT2, respectively

[1] = substrate: Cc1cc(O)c2c(c1)C(=O)c1cc(O)cc(O)c1C2=O; assay: HPLC glycosylation assay; Lineweaver-Burk plot; assay type: biochemical, Pleuropterus multiflorus; conditions: 0.8 mM UDP-glucose; 0.05 M Tris-HCl; 5-480 μM substrate; pH and temperature of kinetics not stated; substrate assigned from methods
Excerpt: HPLC glycosylation assay; Lineweaver-Burk plot on FmUGT2 | using THSG and emodin as the substrate for FmUGT1 and FmUGT2, respectively

T1 sequence (A0A9E7V1Q5 entry or part of it): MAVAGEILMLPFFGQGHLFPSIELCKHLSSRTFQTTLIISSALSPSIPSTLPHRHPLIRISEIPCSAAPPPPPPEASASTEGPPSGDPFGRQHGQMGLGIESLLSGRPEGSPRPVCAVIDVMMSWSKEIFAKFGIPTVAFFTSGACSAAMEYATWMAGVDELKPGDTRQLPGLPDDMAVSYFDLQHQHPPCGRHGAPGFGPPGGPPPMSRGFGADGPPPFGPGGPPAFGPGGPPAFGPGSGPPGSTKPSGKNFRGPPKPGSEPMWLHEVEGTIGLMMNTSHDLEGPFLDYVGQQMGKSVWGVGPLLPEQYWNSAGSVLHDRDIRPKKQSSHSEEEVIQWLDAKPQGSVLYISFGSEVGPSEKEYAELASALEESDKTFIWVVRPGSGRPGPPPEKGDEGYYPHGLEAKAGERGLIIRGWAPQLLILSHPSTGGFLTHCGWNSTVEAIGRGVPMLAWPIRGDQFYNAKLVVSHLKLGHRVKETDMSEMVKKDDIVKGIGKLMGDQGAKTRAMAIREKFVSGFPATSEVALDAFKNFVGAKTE

Km (FmUGT1) [µM] | Molecule | Km [1] [µM] | kcat [1] [s⁻¹]
236 | OC[C@H]1O[C@@H](Oc2c(O)cc(O)cc2/C=C/c2ccc(O)cc2)[C@H](O)[C@@H](O)[C@@H]1O [compound 1, THSG] | – | –
– | FmUGT2 (Pleuropterus multiflorus) (protein, full length, 482 residues (ORF 1449 bp); pET-32a (BamH I) in E. coli Transetta (DE3), Ni-NTA purified) MTISKTANLVLIPAPGMGHLAPAIELAKHLVARDPRLSITVLLIKGFVPEETVESYILSLKSNSSLLNQGIGFIDIPQIDLNSARPSFLTHMNAYQPKVKEAIEGLRSAGPLPVAGLLVDMFCTSTIDVATELGLPSYVFFTSGAGLLRLFFHLHGLGVDVAQEYDVVRSPDTLLEIPGFRNPVPVKVLPGRFLSKDGQSSTFLRLADKFRQAKGILVNTCMEIDRDLIQSMSQQDIEIPPIYPVGPILNLPTEDDHGHDDDESSGKDPITRWLDDQPPRSVVFLCFGSRGTFNDTQIKEIAVGLERSGQRFLWSLRQRPGETGVPLELDDPSKVLPEGFFERTAEKGRVIGWAPQARVLAHKAVGAFVSHCGWNSTLESFWYGVPIAAWPIYAEQQLNAFVLVKELGLATEIRIDYCQDFGINMVVKAEEVEDGINKAMKETEVKKKVKEMCDKARKALEEGGSSYESIGRFIEVVFKNLP | 185 | 0.1413
